The results in this text go back to patent US20100261178A1.

Assay [1] has as its target human adiponectin receptor AdipoR2 (human) (UniProt Q86V24).
Assay [2] deals with human adiponectin receptor AdipoR1 (human) (UniProt Q96A54).

In assay [1], adiponectin (ligand) had an EC50 of adiponectin for repression of FET3-lacZ of 2.4 pM and a log EC50 pM of adiponectin for repression of FET3-lacZ of 0.38 log EC50 pM. Moreover, in assay [2], the EC50 of adiponectin for repression of FET3-lacZ was found to be 0.7 pM and the log EC50 pM of adiponectin for repression of FET3-lacZ is -0.13 log EC50 pM.
